Results from paper PMC10589216, “Lactate dehydrogenase D is a general dehydrogenase for D-2-hydroxyacids and is associated with D-lactic acidosis” (Nature Communications, 2023).

Experiments:
[1] = target: T1, mLDHD (Mus musculus, UniProt Q7TNG8, H405A); assay: X-ray crystal structure (soak); format: binding; details: FAD-bound crystals; no Mn2+ at active site; DL mixture soaked
T1 construct: gene Ldhd
T1 sequence (Q7TNG8 22-484 H405A): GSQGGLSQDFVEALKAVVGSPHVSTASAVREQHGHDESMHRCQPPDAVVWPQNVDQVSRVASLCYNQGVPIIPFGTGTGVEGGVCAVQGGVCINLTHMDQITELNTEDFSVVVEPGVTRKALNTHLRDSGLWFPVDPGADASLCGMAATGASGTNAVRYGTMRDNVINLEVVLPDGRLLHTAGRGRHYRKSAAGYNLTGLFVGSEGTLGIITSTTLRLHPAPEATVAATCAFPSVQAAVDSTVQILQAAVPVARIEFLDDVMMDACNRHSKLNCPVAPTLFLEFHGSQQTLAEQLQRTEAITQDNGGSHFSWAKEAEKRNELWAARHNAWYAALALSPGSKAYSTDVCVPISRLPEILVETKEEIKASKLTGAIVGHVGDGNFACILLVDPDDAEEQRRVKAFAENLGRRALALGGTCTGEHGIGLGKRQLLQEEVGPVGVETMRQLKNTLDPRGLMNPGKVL

[2] = target: T2, mLDHD (Mus musculus, UniProt Q7TNG8); assay: X-ray crystal structure, […] Å; format: binding; details: non-covalently bound, co-purified from expression host
T2 construct: gene Ldhd
T2 sequence (Q7TNG8 22-484): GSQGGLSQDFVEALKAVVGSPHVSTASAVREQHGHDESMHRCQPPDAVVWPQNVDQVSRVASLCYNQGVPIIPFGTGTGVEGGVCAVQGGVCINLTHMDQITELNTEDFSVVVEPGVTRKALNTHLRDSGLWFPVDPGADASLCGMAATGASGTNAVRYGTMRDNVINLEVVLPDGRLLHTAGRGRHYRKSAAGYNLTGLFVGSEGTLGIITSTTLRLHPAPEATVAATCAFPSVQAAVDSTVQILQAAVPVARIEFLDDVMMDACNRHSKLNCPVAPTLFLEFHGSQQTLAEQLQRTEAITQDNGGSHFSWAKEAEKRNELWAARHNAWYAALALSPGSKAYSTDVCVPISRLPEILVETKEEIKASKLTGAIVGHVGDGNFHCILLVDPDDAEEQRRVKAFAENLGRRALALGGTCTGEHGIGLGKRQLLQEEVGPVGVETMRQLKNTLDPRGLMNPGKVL

[3] = substrate: C[C@@H](O)C(=O)O; assay: purified protein; details: 50 mM Tris-HCl pH 7.4, 50 μM MnCl2, 200 μM PMS, 100 μM DCIP, 37 °C
[4] = substrate: CC(C)CC(O)C(=O)O; assay: purified protein; format: biochemical, Mus musculus; details: 50 mM Tris-HCl pH 7.4, 50 μM MnCl2, 200 μM PMS, 100 μM DCIP, 37 °C, racemate, KM calculated on D-isomer concentration
[5] = substrate: CC(C)[C@@H](O)C(=O)O; assay: purified protein; format: biochemical, Mus musculus; details: 50 mM Tris-HCl pH 7.4, 50 μM MnCl2, 200 μM PMS, 100 μM DCIP, 37 °C
[6] = substrate: CCC(C)C(O)C(=O)O; assay: purified protein; format: biochemical, Mus musculus; details: 50 mM Tris-HCl pH 7.4, 50 μM MnCl2, 200 μM PMS, 100 μM DCIP, 37 °C
[7] = substrate: CCCC(O)C(=O)O; assay: purified protein; format: biochemical, Mus musculus; details: 50 mM Tris-HCl pH 7.4, 50 μM MnCl2, 200 μM PMS, 100 μM DCIP, 37 °C, racemate, KM calculated on D-isomer concentration
[8] = substrate: CCCCC(O)C(=O)O; assay: purified protein; format: biochemical, Mus musculus; details: 50 mM Tris-HCl pH 7.4, 50 μM MnCl2, 200 μM PMS, 100 μM DCIP, 37 °C
[9] = substrate: CCCCCCC(O)C(=O)O; assay: purified protein; format: biochemical, Mus musculus; details: 50 mM Tris-HCl pH 7.4, 50 μM MnCl2, 200 μM PMS, 100 μM DCIP, 37 °C
[10] = substrate: CC[C@@H](O)C(=O)O; assay: purified protein; format: biochemical, Mus musculus; details: 50 mM Tris-HCl pH 7.4, 50 μM MnCl2, 200 μM PMS, 100 μM DCIP, 37 °C
[11] = substrate: O=C(O)[C@H](O)Cc1ccccc1; assay: purified protein; format: biochemical, Mus musculus; details: 50 mM Tris-HCl pH 7.4, 50 μM MnCl2, 200 μM PMS, 100 μM DCIP, 37 °C

With `CCC[C@@H](O)C(=O)O` (mixture of isomers) [D-2-HV, D-2-hydroxyvalerate] as the molecule, how does the “X-ray crystal structure (soak)” value [1] read?
The value was “mLDHDH405A in complex with FAD and D-2-hydroxyvalerate (PDB 8JDN)”.

How did the “X-ray crystal structure (soak)” value [1] turn out when `CCCCCC[C@@H](O)C(=O)O` (mixture of isomers) [D-2-HO, D-2-hydroxyoctanoate] was run?
Its value is “mLDHDH405A in complex with FAD and D-2-hydroxyoctanoate (PDB 8JDB)”.

For `CC(C)C[C@@H](O)C(=O)O` (mixture of isomers) [D-2-HIC, D-2-hydroxyisocaproate], which “X-ray crystal structure (soak)” value [1] is on record?
The value was “mLDHDH405A in complex with FAD and D-2-hydroxyisocaproate (PDB 8JDQ)”.

How did the “X-ray crystal structure, 1.70 Å” value [2] turn out when `Cc1cc2nc3c(=O)[nH]c(=O)nc-3n(C[C@H](O)[C@H](O)[C@H](O)COP(=O)(O)OP(=O)(O)OC[C@H]3O[C@@H](n4cnc5c(N)ncnc54)[C@H](O)[C@@H]3O)c2cc1C` [FAD] was run?
The value was “mLDHD in complex with FAD (PDB 8JDC)”.

B1: mLDHD (Mus musculus) (protein)
chain: GSQGGLSQDFVEALKAVVGSPHVSTASAVREQHGHDESMHRCQPPDAVVWPQNVDQVSRVASLCYNQGVPIIPFGTGTGVEGGVCAVQGGVCINLTHMDQITELNTEDFSVVVEPGVTRKALNTHLRDSGLWFPVDPGADASLCGMAATGASGTNAVRYGTMRDNVINLEVVLPDGRLLHTAGRGRHYRKSAAGYNLTGLFVGSEGTLGIITSTTLRLHPAPEATVAATCAFPSVQAAVDSTVQILQAAVPVARIEFLDDVMMDACNRHSKLNCPVAPTLFLEFHGSQQTLAEQLQRTEAITQDNGGSHFSWAKEAEKRNELWAARHNAWYAALALSPGSKAYSTDVCVPISRLPEILVETKEEIKASKLTGAIVGHVGDGNFHCILLVDPDDAEEQRRVKAFAENLGRRALALGGTCTGEHGIGLGKRQLLQEEVGPVGVETMRQLKNTLDPRGLMNPGKVL
How did the Km [3] turn out when B1 was run?
Its Km is 122.0 ± 4.5 µM.

What about the Vmax [3] of the same molecule?
Its Vmax is 1.22 µmol/min/mg.

And the kcat [3]?
Its kcat is 1.02 s⁻¹.

And the kcat/Km [3]?
Its kcat/Km is 8330 M⁻¹ s⁻¹.

What about the Km [4] of the same molecule?
Its Km is 16.4 ± 0.7 µM.

And the Vmax [4]?
Its Vmax is 0.902 µmol/min/mg.

And the kcat [4]?
The kcat was 0.752 ± 0.0133 s⁻¹.

And the kcat/Km [4]?
The kcat/Km was 45800 M⁻¹ s⁻¹.

And the Km [5]?
The Km was 13.9 ± 1.2 µM.

And the Vmax [5]?
Its Vmax is 1.11 µmol/min/mg.

What about the kcat [5] of the same molecule?
Its kcat is 0.925 ± 0.015 s⁻¹.

And the kcat/Km [5]?
The kcat/Km was 66500 M⁻¹ s⁻¹.

What about the Km [6] of the same molecule?
The Km was 16.5 ± 0.1 µM.

And the Vmax [6]?
The Vmax was 1.01 µmol/min/mg.

What about the kcat [6] of the same molecule?
The kcat was 0.842 ± 0.01 s⁻¹.

What about the kcat/Km [6] of the same molecule?
Its kcat/Km is 51000 M⁻¹ s⁻¹.

And the Km [7]?
The Km was 31.4 ± 2.7 µM.

And the Vmax [7]?
The Vmax was 1.12 µmol/min/mg.

And the kcat [7]?
Its kcat is 0.933 ± 0.0183 s⁻¹.

And the kcat/Km [7]?
Its kcat/Km is 29700 M⁻¹ s⁻¹.

And the Km [8]?
The Km was 34.9 ± 1.6 µM.

And the Vmax [8]?
The Vmax was 1.48 µmol/min/mg.

What about the kcat [8] of the same molecule?
The kcat was 1.233 ± 0.0117 s⁻¹.

And the kcat/Km [8]?
Its kcat/Km is 35300 M⁻¹ s⁻¹.

And the Km [9]?
The Km was 104.0 ± 9.0 µM.

What about the Vmax [9] of the same molecule?
The Vmax was 0.409 µmol/min/mg.

What about the kcat [9] of the same molecule?
The kcat was 0.342 ± 0.00833 s⁻¹.

And the kcat/Km [9]?
The kcat/Km was 3280 M⁻¹ s⁻¹.

And the Km [10]?
The Km was 62.9 ± 2.8 µM.

And the Vmax [10]?
The Vmax was 1.6 µmol/min/mg.

What about the kcat [10] of the same molecule?
The kcat was 1.33 ± 0.015 s⁻¹.

What about the kcat/Km [10] of the same molecule?
Its kcat/Km is 21200 M⁻¹ s⁻¹.

And the Km [11]?
Its Km is 337.0 ± 44.0 µM.

What about the Vmax [11] of the same molecule?
Its Vmax is 0.788 µmol/min/mg.

And the kcat [11]?
Its kcat is 0.657 ± 0.03 s⁻¹.

And the kcat/Km [11]?
The kcat/Km was 1950 M⁻¹ s⁻¹.
